code Z = not defined here; fmk = not defined here
Experiments:
[1] = biological target: caspases; experiment: cell-based or functional assay
[2] = biological target: 2XUb-DEVD-Bla fusion protein, P62593
2XUb-DEVD-Bla fusion protein, P62593, sequence (P62593 whole entry, looked up, the tested form may be a part): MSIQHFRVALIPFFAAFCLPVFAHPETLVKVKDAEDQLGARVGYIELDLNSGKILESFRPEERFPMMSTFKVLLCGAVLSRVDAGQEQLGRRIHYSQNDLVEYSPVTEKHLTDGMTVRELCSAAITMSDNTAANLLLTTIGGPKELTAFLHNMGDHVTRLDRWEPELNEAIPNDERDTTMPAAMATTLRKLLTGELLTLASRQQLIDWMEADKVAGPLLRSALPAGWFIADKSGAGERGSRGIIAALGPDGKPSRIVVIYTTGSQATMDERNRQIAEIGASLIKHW

B1: Z-VAD-fmk (peptide)
peptide: {code Z}-Val-Ala-Asp-fmk
modifications: reading uncertain; also: printed as Z-VAD-fmk
Question: For B1, which 460/530 emission ratio, + αFas/+ inh/+ chx, Jurkat cells expressing 2XUb-DEVD-Bla, 10 µM Z-VAD-fmk (460/530 emission ratio) [1] is on record?
Answer: 0.08

Question: What about the IC50 of inhibition of anti-Fas-induced caspase activity in Jurkat cells expressing 2XUb-DEVD-Bla (β-lactamase activity, CCF2 460/530 nm ratio) [1] of the same binder?
Answer: 5 µM

B2: purified recombinant caspase-3 (protein)
chain: SGISLDNSYKMDYPEMGLCIIINNKNFHKSTGMTSRSGTDVDAANLRETFRNLKYEVRNKNDLTREEIVELMRDVSKEDHSKRSSFVCVLLSHGEEGIIFGTNGPVDLKKITNFFRGDRCRSLTGKPKLFIIQACRGTELDCGIETDSGVDDDMACHKIPVEADFLYAYSTAPGYYSWRNSKDGSWFIQSLCAMLKQYADKLEFMHILTRVNRKVATEFESFSFDATFHAKKQIPCIVSMLTKELYFYH
Question: For B2, which “in vitro cleavage of the 35S-labeled fusion by 25 nM purified caspase-3, SDS-PAGE and autoradiography” value [2] is on record?
Answer: over 90% cleavage within 5 minutes
